± gives the uncertainty stated by the source.
B1: CD2-associated protein, residues 109 to 169; numbered along this chain, Q9Y5K6 (parent)
chain: KKRQCKVLFEYIPQNEDELELKVGDIIDINEEVEEGWWSGTLNNKLGLFPSNFVKELEVTD

Variants of: B1
Experiment: abundance fitness (aPCA) (normalised: wild type 0, dead -1); higher = more abundant; growth selection in yeast, the domain comes from the species named
Conditions: Homo sapiens

Abundance fitness of substitutions, site by site:
Q14: C -0.304 ± 0.24; V -0.338 ± 0.27; S -0.325 ± 0.25; R -0.183 ± 0.15; H -0.509 ± 0.42; T 0.079 ± 0.16; L -0.407 ± 0.23; A -0.203 ± 0.39; G -0.337 ± 0.18; W -0.788 ± 0.32
D17: G -0.092 ± 0.12; R 0.076 ± 0.16; S 0.289 ± 0.14; H -0.343 ± 0.24; F -0.249 ± 0.47; E 0.128 ± 0.11; Y -0.192 ± 0.38; V 0.051 ± 0.14; L -0.13 ± 0.13; T -0.298 ± 0.46; Q -0.313 ± 0.36; A -0.142 ± 0.1; K -0.583 ± 0.45; P -0.518 ± 0.21; M 0.001 ± 0.26
N15: Q -0.26 ± 0.13; K -0.041 ± 0.18; H -0.148 ± 0.16; E -0.275 ± 0.21; Y -0.558 ± 0.27; M -0.614 ± 0.36; F -0.448 ± 0.15; L -0.468 ± 0.1; R 0.153 ± 0.078; P -0.639 ± 0.17; G -0.19 ± 0.14; C -0.3 ± 0.13; T -0.097 ± 0.1; S -0.04 ± 0.086; A 0.041 ± 0.14; I -0.851 ± 0.22; W -0.483 ± 0.15
E18: Y -0.582 ± 0.22; L -0.684 ± 0.19; S -0.808 ± 0.2; P -0.986 ± 0.34; A -0.783 ± 0.27; M -0.503 ± 0.2; R -0.792 ± 0.22; D -0.738 ± 0.49; T -0.838 ± 0.29; K -0.411 ± 0.41; Q -0.395 ± 0.23; G -0.439 ± 0.21; V -0.989 ± 0.44
F9: D -0.097 ± 0.17; L 0.283 ± 0.086; T 0.222 ± 0.12; E 0.173 ± 0.13; G -0.294 ± 0.11; Q 0.083 ± 0.12; P -0.449 ± 0.14; A 0.026 ± 0.11; S 0.004 ± 0.087; H 0.145 ± 0.35; C -0.303 ± 0.22; R 0.18 ± 0.075; M 0.244 ± 0.1; I 0.131 ± 0.3; W -0.108 ± 0.15
P13: E -0.747 ± 0.39; S -0.444 ± 0.21; L -0.903 ± 0.34; G -0.547 ± 0.13; M -0.812 ± 0.38; R 0.026 ± 0.094; K -0.233 ± 0.25; W -0.881 ± 0.29
Y11: S -0.572 ± 0.15; L -0.951 ± 0.21; V -0.715 ± 0.13; P -0.481 ± 0.22; N -0.344 ± 0.42; K -0.415 ± 0.37; A -0.539 ± 0.17; W -0.318 ± 0.16; H -0.286 ± 0.34; E -0.73 ± 0.21; F -0.767 ± 0.17; G -0.855 ± 0.14; R 0.072 ± 0.094; T -0.458 ± 0.34; M -0.897 ± 0.45; Q -0.936 ± 0.44; D -0.446 ± 0.36
V7: T -0.9 ± 0.31; R -0.193 ± 0.17; S -0.399 ± 0.13; M -0.884 ± 0.24; Q 0.1 ± 0.16; F -0.826 ± 0.38; P -1.05 ± 0.26; L -0.542 ± 0.14; G -1.24 ± 0.32
I12: R -0.253 ± 0.11; E -0.122 ± 0.19; S -0.138 ± 0.13; P -0.159 ± 0.37; W -0.311 ± 0.15; F -0.026 ± 0.21; T 0.106 ± 0.14; K -0.063 ± 0.19; A -0.03 ± 0.13; V -0.218 ± 0.18; Q -0.267 ± 0.27; D -0.303 ± 0.23; Y 0.065 ± 0.23
E10: T -0.265 ± 0.12; M -0.579 ± 0.34; A -0.333 ± 0.15; S 0.081 ± 0.076; K -0.215 ± 0.12; L -0.841 ± 0.16; W -0.904 ± 0.31; G -0.153 ± 0.091; N -0.064 ± 0.16; R -0.126 ± 0.066; C -0.266 ± 0.23; Q -0.146 ± 0.15; D 0.144 ± 0.14
E16: W -0.317 ± 0.44; I -0.552 ± 0.48; P -0.191 ± 0.16; L -0.403 ± 0.15; K -0.434 ± 0.24; M 0.147 ± 0.24; G -0.303 ± 0.15; V -0.182 ± 0.1; Q -0.007 ± 0.27; D -0.203 ± 0.27; R 0.017 ± 0.14; S 0.053 ± 0.14
L8: Q -0.437 ± 0.23; N -0.417 ± 0.32; H -0.401 ± 0.33; P -0.596 ± 0.29; A -0.34 ± 0.2; W -0.49 ± 0.24; T -0.192 ± 0.14; D -0.267 ± 0.25; E -0.088 ± 0.18; M 0.33 ± 0.22; K -0.304 ± 0.14; G -0.133 ± 0.18; V -0.035 ± 0.11; R -0.345 ± 0.17; S -0.082 ± 0.12; Y -0.288 ± 0.18; I 0.118 ± 0.15
L19: M -0.319 ± 0.29; G -0.508 ± 0.21; A -0.906 ± 0.43; H -0.73 ± 0.36; E -0.641 ± 0.34; I -0.063 ± 0.33; K -0.727 ± 0.43; R -0.68 ± 0.17

Reference: the Human Domainome abundance scans (Beltran et al. 2025)
